Measurements reported in patent US20110059889A1 (SYNTONIX PHARMACEUTICALS, published 2011).
Where two headings read alike, the source gives them in different places. Bridge positions count the residues as written; N and C are the ends. Square brackets hold non-standard residues; d marks the D form. Ends that are not written are not given here. NMeY = CN[C@@H](Cc1ccc(O)cc1)C(=O)O; NMeL = CN[C@@H](CC(C)C)C(=O)O; Pen = CC(C)(S)[C@H](N)C(=O)O; NMeA = CN[C@@H](C)C(=O)O; Sar = CNCC(=O)O

Key:
[1] = target: T1, soluble human FcRn (shFcRn) (human, UniProt P55899 24-297; P61769 21-119); assay: IgG competition ELISA
T1 construct: Biotinylated for the ELISA, amine-coupled to a CM5 chip for SPR; also called biotinylated shFcRn
T1 sequence (P55899 24-297 limits assumed, chain 1 of 2): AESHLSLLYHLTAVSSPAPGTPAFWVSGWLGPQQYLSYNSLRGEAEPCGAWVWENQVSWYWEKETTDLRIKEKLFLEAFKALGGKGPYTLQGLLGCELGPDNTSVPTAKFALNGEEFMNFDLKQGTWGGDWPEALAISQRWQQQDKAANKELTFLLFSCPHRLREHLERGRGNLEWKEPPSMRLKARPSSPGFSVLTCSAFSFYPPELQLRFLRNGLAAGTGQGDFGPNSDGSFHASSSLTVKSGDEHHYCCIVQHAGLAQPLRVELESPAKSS
T1 sequence (P61769 21-119 limits assumed, chain 2 of 2): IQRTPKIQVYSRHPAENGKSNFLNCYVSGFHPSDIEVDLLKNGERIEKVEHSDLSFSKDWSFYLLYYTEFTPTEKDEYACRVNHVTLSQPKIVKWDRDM
Procedure: (§1) The wells were coated with 100 μl/well of 1 μg/ml biotinylated-shFcRn in Buffer A. The plate was sealed and incubated at 37° C. for 2 hours. Afterwards, the plate was washed with 200 μl/well of Buffer B (Buffer B: 100 mM MES pH 6, 150 mM NaCl, 0.5% BSA IgG-free (Jackson ImmunoResearch, West Grove, Pa.), 0.05% Tween-20). […] To allow for mixing, the plate was rocked for 2 minutes, sealed and incubated at 37° C. for 2 hours. […] The plate was covered, incubated for 30 minutes at room temperature and washed 4 times with 200 μl/well of ice-cold buffer B. SureBlue TMB substrate solution (100 μl/well, KPL, Gaithersburg, Md.) was added and the plate was allowed to incubate at room temperature until color developed, which took 5 to 10 minutes. Once color developed, 100 μl/well of TMB stop solution (KPL, Gaithersburg, Md.) was added and the absorbance was measured at 450 nm. The data was plotted as absorbance vs. peptide concentration to derive the inhibitory concentration 50% (IC₅₀) values.

[2] = target: T1, soluble human FcRn (shFcRn); assay: IgG competition ELISA; remark: listed apart in the source
[3] = target: T1, soluble human FcRn (shFcRn); assay: SPR pH 6; Peptide No. 74: Pen, G and lower-case a (QRF-Pen-TGHF-G-a-LYPCNGP)
Procedure: (§2) The following steps were performed to cross-link soluble human or cynomolgus FcRn to the dextran surface of a CM5 sensor chip (Biacore AB, Uppsala, Sweden) by an amine coupling reaction involving 1-ethyl-(3-dimethylaminopropyl)-carbodiimide hydrochloride (EDC) (Biacore AB, Uppsala, Sweden) and N-hydroxysuccinimide (NHS) (Biacore AB, Uppsala, Sweden) as recommended by Biacore (BIAapplications Handbook, version AB, section 4.2, Biacore AB, Uppsala, Sweden). […] Residual sites on the FcRn flow cell were blocked with 1 M ethanolamine hydrochloride pH 8.5 (Biacore AB, Uppsala, Sweden). A control flow cell was blocked with ethanolamine for reference subtraction. For analysis of the monomeric peptides, FcRn was coated to a final density of 4000-5000 response units (RU). For analysis of the peptide dimers, FcRn was coated to a density of 2000-2500 RU. All SPR measurements were performed using a BIACORE 3000 Instrument (Biacore AB Uppsala, Sweden). For measurements done at either pH 6 or pH 7.4, experiments were performed in 50 mM phosphate, 100 mM sodium chloride, 0.01% surfactant P20 (Biacore AB, Uppsala, Sweden).
(§3) Ten, 2-fold dilutions of the peptide were injected over the FcRn-CM5 chip at a rate of 20 μl/min for 2 min. The peptide was dissociated from the chip for 2.5 minutes with buffer. […] Sensorgrams were generated and analyzed using BiaEval software version 3.1 (Biacore AB, Uppsala, Sweden). […]

[4] = target: T1, soluble human FcRn (shFcRn); assay: SPR pH 6
Procedure: as §2
(§4) Ten, 2-fold dilutions of the peptide were injected over the FcRn-CM5 chip at a rate of 20 μl/min for 2 min. The peptide was dissociated from the chip for 2.5 minutes with buffer. Any remaining peptide was removed from the chip with a 30 second injection of HBS-P buffer (Biacore AB, Uppsala, Sweden) at a rate of 30 μl/min. Sensorgrams were generated and analyzed using BiaEval software version 3.1 (Biacore AB, Uppsala, Sweden). The equilibrium RU observed for each injection was plotted against concentration. The equilibrium KD values were derived by analysis of the plots using the steady state affinity model included in the BiaEval software.

[5] = target: T1, soluble human FcRn (shFcRn); assay: IgG competition ELISA; remark: listed apart in the source
Procedure: as §1

[6] = target: T1, soluble human FcRn (shFcRn); assay: IgG competition ELISA; remark: listed apart in the source
Procedure: as §1

[7] = target: T1, soluble human FcRn (shFcRn); assay: SPR pH 6; remark: listed apart in the source
Procedure: as §2, §3

[8] = target: T1, soluble human FcRn (shFcRn); assay: SPR pH 6; Peptide No. 113: Pen, NMeLeu (QRF-Pen-TGHFGG-NMeLeu-YPCNGP)
Procedure: as §2, §3

[9] = target: T1, soluble human FcRn (shFcRn); assay: IgG competition ELISA; remark: listed apart in the source
Procedure: as §1

[10] = target: T1, soluble human FcRn (shFcRn); assay: IgG competition ELISA; remark: listed apart in the source
Procedure: as §1

[11] = target: T1, soluble human FcRn (shFcRn); assay: IgG competition ELISA; remark: listed apart in the source
Procedure: as §1

[12] = target: T1, soluble human FcRn (shFcRn); assay: SPR pH 6; Peptide No. 114: Pen, NMeTyr (QRF-Pen-TGHFGGL-NMeTyr-PCNGP)
Procedure: as §2, §3

[13] = target: T1, soluble human FcRn (shFcRn); assay: SPR pH 7.4
Procedure: as §2, §3

[14] = target: T1, soluble human FcRn (shFcRn); assay: SPR pH 6; remark: listed apart in the source
Procedure: as §2, §4

[15] = target: T1, soluble human FcRn (shFcRn); assay: IgG competition ELISA; remark: listed apart in the source
Procedure: as §1

[16] = target: T1, soluble human FcRn (shFcRn); assay: SPR pH 7.4; Peptide No. 146: Pen for Cys and NMeLeu for Leu (RF-Pen-TGHFGG-NMeLeu-YPCNGP)
Procedure: as §2, §3

[17] = target: T1, soluble human FcRn (shFcRn); assay: SPR pH 6; remark: listed apart in the source
Procedure: as §2, §3

B1: Peptide No. 194 (peptide)
peptide: QRFCTGHFGXYPCNGP
modifications: Pen 4; X 10 = D,L-Friedinger's lactam (dipeptide mimetic in place of Gly-Leu); disulfide 4-13; C-terminal amide
B1 was tested, and the IC50 [1] was 4900 nM.

B2: Peptide No. 74 (peptide)
peptide: QRF[Pen]TGHFG[dA]LYPCNGP-NH2
modifications: disulfide 4-14; N-terminus assumed
SMILES: CC(C)C[C@@H]1NC(=O)[C@@H](C)NC(=O)CNC(=O)[C@H](Cc2ccccc2)NC(=O)[C@H](Cc2c[nH]cn2)NC(=O)CNC(=O)[C@H]([C@@H](C)O)NC(=O)[C@@H](NC(=O)[C@H](Cc2ccccc2)NC(=O)[C@H](CCCNC(=N)N)NC(=O)[C@@H](N)CCC(N)=O)C(C)(C)SSC[C@@H](C(=O)N[C@@H](CC(N)=O)C(=O)NCC(=O)N2CCC[C@H]2C(N)=O)NC(=O)[C@@H]2CCCN2C(=O)[C@H](Cc2ccc(O)cc2)NC1=O
In the case of B2, the IC50 [2] is reported as 2000 nM and the Kd [3] is reported as 480 nM.

B3: Peptide No. 213 (peptide)
peptide: QRF[Pen][NMeA]GHFGGLYPCNGP-NH2
modifications: disulfide 4-14; N-terminus assumed
SMILES: CC(C)C[C@@H]1NC(=O)CNC(=O)CNC(=O)[C@H](Cc2ccccc2)NC(=O)[C@H](Cc2c[nH]cn2)NC(=O)CNC(=O)[C@H](C)N(C)C(=O)[C@@H](NC(=O)[C@H](Cc2ccccc2)NC(=O)[C@H](CCCNC(=N)N)NC(=O)[C@@H](N)CCC(N)=O)C(C)(C)SSC[C@@H](C(=O)N[C@@H](CC(N)=O)C(=O)NCC(=O)N2CCC[C@H]2C(N)=O)NC(=O)[C@@H]2CCCN2C(=O)[C@H](Cc2ccc(O)cc2)NC1=O
Binder B3 has a Kd [4] of 1000 nM and an IC50 [5] of 5500 nM.

B4: Peptide No. 195 (peptide)
peptide: QRF[Pen]GGHFGGLYPCNGP-NH2
modifications: disulfide 4-14; N-terminus assumed
SMILES: CC(C)C[C@@H]1NC(=O)CNC(=O)CNC(=O)[C@H](Cc2ccccc2)NC(=O)[C@H](Cc2c[nH]cn2)NC(=O)CNC(=O)CNC(=O)[C@@H](NC(=O)[C@H](Cc2ccccc2)NC(=O)[C@H](CCCNC(=N)N)NC(=O)[C@@H](N)CCC(N)=O)C(C)(C)SSC[C@@H](C(=O)N[C@@H](CC(N)=O)C(=O)NCC(=O)N2CCC[C@H]2C(N)=O)NC(=O)[C@@H]2CCCN2C(=O)[C@H](Cc2ccc(O)cc2)NC1=O
With B4 the Kd [4] was 760 nM.

For QRFCTGHFGGLXPCNGP (Pen 4; 3-pyridylAla 12; disulfide 4-14; C-terminal amide) [Peptide No. 67], the IC50 [6] was 92000 nM and the Kd [7] was 34000 nM.

B5: Peptide No. 113 (peptide)
peptide: QRF[Pen]TGHFGG[NMeL]YPCNGP-NH2
modifications: disulfide 4-14; N-terminus assumed
SMILES: CC(C)C[C@H]1C(=O)N[C@@H](Cc2ccc(O)cc2)C(=O)N2CCC[C@H]2C(=O)N[C@H](C(=O)N[C@@H](CC(N)=O)C(=O)NCC(=O)N2CCC[C@H]2C(N)=O)CSSC(C)(C)[C@H](NC(=O)[C@H](Cc2ccccc2)NC(=O)[C@H](CCCNC(=N)N)NC(=O)[C@@H](N)CCC(N)=O)C(=O)N[C@@H]([C@@H](C)O)C(=O)NCC(=O)N[C@@H](Cc2c[nH]cn2)C(=O)N[C@@H](Cc2ccccc2)C(=O)NCC(=O)NCC(=O)N1C
In the case of B5, the Kd [8] is reported as 86 nM and the IC50 [9] is reported as 1600 nM.

B6: Peptide No. 99 (peptide)
peptide: RF[Pen]TGHFGGLYPC-NH2
modifications: disulfide 3-13; N-terminus assumed
SMILES: CC(C)C[C@@H]1NC(=O)CNC(=O)CNC(=O)[C@H](Cc2ccccc2)NC(=O)[C@H](Cc2c[nH]cn2)NC(=O)CNC(=O)[C@H]([C@@H](C)O)NC(=O)[C@@H](NC(=O)[C@H](Cc2ccccc2)NC(=O)[C@@H](N)CCCNC(=N)N)C(C)(C)SSC[C@@H](C(N)=O)NC(=O)[C@@H]2CCCN2C(=O)[C@H](Cc2ccc(O)cc2)NC1=O
B6 showed an IC50 [10] of 2000 nM and an IC50 [11] of 2000 nM.

B7: Peptide No. 114 (peptide)
peptide: QRF[Pen]TGHFGGL[NMeY]PCNGP-NH2
modifications: disulfide 4-14; N-terminus assumed
SMILES: CC(C)C[C@@H]1NC(=O)CNC(=O)CNC(=O)[C@H](Cc2ccccc2)NC(=O)[C@H](Cc2c[nH]cn2)NC(=O)CNC(=O)[C@H]([C@@H](C)O)NC(=O)[C@@H](NC(=O)[C@H](Cc2ccccc2)NC(=O)[C@H](CCCNC(=N)N)NC(=O)[C@@H](N)CCC(N)=O)C(C)(C)SSC[C@@H](C(=O)N[C@@H](CC(N)=O)C(=O)NCC(=O)N2CCC[C@H]2C(N)=O)NC(=O)[C@@H]2CCCN2C(=O)[C@H](Cc2ccc(O)cc2)N(C)C1=O
Work on B7 yielded a Kd [12] of 92000 nM.

B8: Peptide No. 147 (peptide)
peptide: RF[Pen]TGHFG[Sar]YPCNGP-NH2
modifications: disulfide 3-12; N-terminus assumed
SMILES: C[C@@H](O)[C@@H]1NC(=O)[C@@H](NC(=O)[C@H](Cc2ccccc2)NC(=O)[C@@H](N)CCCNC(=N)N)C(C)(C)SSC[C@@H](C(=O)N[C@@H](CC(N)=O)C(=O)NCC(=O)N2CCC[C@H]2C(N)=O)NC(=O)[C@@H]2CCCN2C(=O)[C@H](Cc2ccc(O)cc2)NC(=O)CN(C)C(=O)CNC(=O)[C@H](Cc2ccccc2)NC(=O)[C@H](Cc2c[nH]cn2)NC(=O)CNC1=O
notes: copied as printed (RF-Pen-TGHFG-Sar-YPCNGP); a Leu after Sar may be missing in the print
B8 was tested, and the Kd [13] was 350 nM, the IC50 [9] was 1000 nM and the Kd [14] was 58 nM.

B9: Peptide No. 96 (peptide)
peptide: QR[dF][Pen]TGHFGGLYPCNGP-NH2
modifications: disulfide 4-14; N-terminus assumed
SMILES: CC(C)C[C@@H]1NC(=O)CNC(=O)CNC(=O)[C@H](Cc2ccccc2)NC(=O)[C@H](Cc2c[nH]cn2)NC(=O)CNC(=O)[C@H]([C@@H](C)O)NC(=O)[C@@H](NC(=O)[C@@H](Cc2ccccc2)NC(=O)[C@H](CCCNC(=N)N)NC(=O)[C@@H](N)CCC(N)=O)C(C)(C)SSC[C@@H](C(=O)N[C@@H](CC(N)=O)C(=O)NCC(=O)N2CCC[C@H]2C(N)=O)NC(=O)[C@@H]2CCCN2C(=O)[C@H](Cc2ccc(O)cc2)NC1=O
B9 was tested, and the IC50 [15] was 11400 nM.

B10: Peptide No. 146 (peptide)
peptide: RF[Pen]TGHFGG[NMeL]YPCNGP-NH2
modifications: disulfide 3-13; N-terminus assumed
SMILES: CC(C)C[C@H]1C(=O)N[C@@H](Cc2ccc(O)cc2)C(=O)N2CCC[C@H]2C(=O)N[C@H](C(=O)N[C@@H](CC(N)=O)C(=O)NCC(=O)N2CCC[C@H]2C(N)=O)CSSC(C)(C)[C@H](NC(=O)[C@H](Cc2ccccc2)NC(=O)[C@@H](N)CCCNC(=N)N)C(=O)N[C@@H]([C@@H](C)O)C(=O)NCC(=O)N[C@@H](Cc2c[nH]cn2)C(=O)N[C@@H](Cc2ccccc2)C(=O)NCC(=O)NCC(=O)N1C
Binder B10 has an IC50 [9] of 2100 nM, a Kd [14] of 59 nM and a Kd [16] of 280 nM.

B11: Peptide No. 142 (peptide)
peptide: RF[Pen]TGHFG[dP]LYPC-NH2
modifications: disulfide 3-13; N-terminus assumed
SMILES: CC(C)C[C@@H]1NC(=O)[C@H]2CCCN2C(=O)CNC(=O)[C@H](Cc2ccccc2)NC(=O)[C@H](Cc2c[nH]cn2)NC(=O)CNC(=O)[C@H]([C@@H](C)O)NC(=O)[C@@H](NC(=O)[C@H](Cc2ccccc2)NC(=O)[C@@H](N)CCCNC(=N)N)C(C)(C)SSC[C@@H](C(N)=O)NC(=O)[C@@H]2CCCN2C(=O)[C@H](Cc2ccc(O)cc2)NC1=O
In the case of B11, the IC50 [10] is reported as 1500 nM and the Kd [17] is reported as 140 nM.

B12: Peptide No. 216 (peptide)
peptide: QRFCTGHFGXYPCNGP
modifications: Pen 4; X 10 = L,L-Friedinger's lactam (dipeptide mimetic in place of Gly-Leu); disulfide 4-13; C-terminal amide
B12 showed an IC50 [1] of 19000 nM.
